This is an account of results in patent US20250281632A1, “LGALS3BP ANTIBODY-DRUG-CONJUGATE AND ITS USE FOR THE TREATMENT OF CANCER” (MEDIAPHARMA S.R.L., priority 2018, published 2025).

The subject of assay [1] is Neuroblastoma cell lines (SHSY5Y, Kelly and hNB). In words: MTT cell killing assay. Format: cell-based, human. The note with it: 72 hours, A375m melanoma cells as positive control (FIG. 19). The method, then: Neuroblastoma cell lines (SHSY5Y, Kelly and hNB) and A375m melanoma cell line were plated and treated with increasing concentrations of SH-DM3 for 72 hours. The cell killing activity of the drug was evaluated by MTT assay.
A general note: Tetrazolium assays rely on reduction of a dye to a coloured formazan, in cell work by metabolically active cells.

Assay [2] addresses T1, Human recombinant LGALS3BP (human, UniProt Q08380 19-585).
T1 construct: also called 90K
T1 sequence (looked up): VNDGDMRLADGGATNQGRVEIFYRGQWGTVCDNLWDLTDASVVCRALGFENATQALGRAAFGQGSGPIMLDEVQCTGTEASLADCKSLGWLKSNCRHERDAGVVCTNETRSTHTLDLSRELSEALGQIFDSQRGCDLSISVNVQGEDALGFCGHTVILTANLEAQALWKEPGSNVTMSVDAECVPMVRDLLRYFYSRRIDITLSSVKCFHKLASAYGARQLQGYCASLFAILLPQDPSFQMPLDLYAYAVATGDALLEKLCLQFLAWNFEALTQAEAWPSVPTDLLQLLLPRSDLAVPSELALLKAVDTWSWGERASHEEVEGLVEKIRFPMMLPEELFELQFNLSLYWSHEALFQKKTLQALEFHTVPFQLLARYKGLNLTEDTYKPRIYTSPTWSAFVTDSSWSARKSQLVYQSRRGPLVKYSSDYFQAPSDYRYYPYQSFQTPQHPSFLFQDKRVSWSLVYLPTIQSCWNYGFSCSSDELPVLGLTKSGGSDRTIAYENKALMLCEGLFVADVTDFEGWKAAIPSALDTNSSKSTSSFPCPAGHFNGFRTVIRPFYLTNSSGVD
Kind of assay: ELISA, plate-coated human recombinant LGALS3BP, anti-human IgG-HRP detection. The method, then: Human recombinant LGALS3BP (2 μg/ml) was pre-coated overnight at 4° C. on 96 well-plates NUNC Maxisorp modules. […] After several washes with PBS-0, 1% Tween-20, anti-human IgG-HRP was added and incubated for 1 hour at room temperature. After washes, stabilized chromogen was added for at least 10 minutes in the dark, before stopping the reaction with the addition of 1 N H₂SO₄. The resulting color was read at 492 nm with an Elisa reader.
Background: An ELISA detects its analyte on a solid surface through an enzyme-linked reagent.

The target in assay [3] is T2, LGALS3BP at the membrane of human tumor cells (human, UniProt Q08380 19-585).
T2 construct: whole, on cells; A secreted protein that stays close to the plasma membrane; It was detected by immunofluorescence on cells; also called Gal-3BP
T2 sequence (looked up): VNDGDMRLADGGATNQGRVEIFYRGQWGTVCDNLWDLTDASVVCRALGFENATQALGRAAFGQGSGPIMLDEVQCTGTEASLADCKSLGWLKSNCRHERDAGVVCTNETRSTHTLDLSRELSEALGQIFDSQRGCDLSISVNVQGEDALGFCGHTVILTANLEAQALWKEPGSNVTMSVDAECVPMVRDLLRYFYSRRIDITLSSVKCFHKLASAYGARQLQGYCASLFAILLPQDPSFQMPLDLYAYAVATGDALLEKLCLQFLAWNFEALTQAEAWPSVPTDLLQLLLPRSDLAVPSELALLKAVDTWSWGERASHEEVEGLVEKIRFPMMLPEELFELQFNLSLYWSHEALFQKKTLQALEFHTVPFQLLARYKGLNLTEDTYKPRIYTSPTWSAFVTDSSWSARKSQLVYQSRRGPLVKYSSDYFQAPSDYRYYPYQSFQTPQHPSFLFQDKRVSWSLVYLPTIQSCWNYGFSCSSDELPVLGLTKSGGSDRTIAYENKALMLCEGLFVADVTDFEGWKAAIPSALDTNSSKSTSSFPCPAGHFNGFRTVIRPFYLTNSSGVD
In words: confocal immunofluorescence on MDA-MB-231, A375 and FADU cells, anti-human IgG-Alexa Fluor 488. How it is done: Human tumor cells were grown on glass coverslips for 24 hours. […] At the end of incubation, cells were fixed in 4% paraformaldehyde for 15 minutes at room temperature, permeabilized with 0.25% Triton X-100 for 5 minutes, and blocked with 0.1% BSA for 1 hour at room temperature. Coverslips were then incubated with anti-human IgG-Alexa Fluor 488 conjugated. DRAQ5 was used to visualize nuclei. Images were acquired with a Zeiss LSM 510 meta-confocal microscopy using 488- and 633-nm lasers. [0142] […] [0143] A-B; MDA-MB-231 breast cancer; C-D, A375 melanoma; E-F, FADU, H&N cancer; G-H, HBF, normal bronchial fibroblasts.

Take `COc1cc2cc(c1Cl)N(C)C(=O)C[C@H](OC(=O)C(C)N(C)C(=O)CCC(C)S)[C@]1(C)O[C@H]1[C@H](C)C1C[C@@](O)(NC(=O)O1)[C@H](OC)/C=C/C=C(\C)C2` (some centres unmarked) [SH DM3]: the cell killing activity entry in assay [1] is “potent cell killing activity”.

B1: Antibody 1959-sss (C220S-C226S-C229S) (antibody, V domains shown)
VH: QVQLQESGPGLVKPSETLSLTCAVSGYSISSGYYWTWIRQPPGKGLEWIGYITYDGKNNYSPSLKNRVTISVDTSKNQFSLKLSSVTAADTAVYYCAREGSSVITTGFTFWGQGTLVTVSS
VL: DIQMTQSPSTLSASVGDRVTITCSASSRVSYMYWYQQKPGKAPKLLIYLTSNLASGVPARFSGSGSGTEFTLTISSLQPDDFATYYCQQWTSHPPTFGQGTKVEVKR
notes: Humanized SP-2 on a human IgG framework, with the hinge cysteines 220, 226 and 229 changed to serine, so no interchain disulfides; Made in CHO cells
For the molecule B1, the binding result in assay [2] and in assay [3] was “binds” throughout.

B2: 1959-sss-DM3 (antibody, V domains shown)
VH: QVQLQESGPGLVKPSETLSLTCAVSGYSISSGYYWTWIRQPPGKGLEWIGYITYDGKNNYSPSLKNRVTISVDTSKNQFSLKLSSVTAADTAVYYCAREGSSVITTGFTFWGQGTLVTVSS
VL: DIQMTQSPSTLSASVGDRVTITCSASSRVSYMYWYQQKPGKAPKLLIYLTSNLASGVPARFSGSGSGTEFTLTISSLQPDDFATYYCQQWTSHPPTFGQGTKVEVKR
modifications: maytansinoid DM3 joined by a disulfide bond to a cysteine of the light chain (DAR 2; light chain mass 24053 Da against 23261 Da reduced); residue number not given
notes: also called Ab1959-SSS-DM3
On to B2, for which the binding result in assay [2] and in assay [3] was “binds” each time.
